Laboratory results: paper PMC2637153

Tests used:
[1] = target: Allochromatium vinosum DsrC, wild type, recombinant with amino-terminal His tag (Allochromatium vinosum); assay: SEC
[2] = target: Allochromatium vinosum DsrC Cys100Ser (Allochromatium vinosum); assay: SEC

| Substance | stoichiometry N [1] | stoichiometry N [2] |
| --- | --- | --- |
| Allochromatium vinosum DsrC, wild type, recombinant with amino-terminal His tag (natural protein) | 2 | – |
| Allochromatium vinosum DsrC Cys100Ser (natural protein) | – | 2 |
